Tests used:
[1] = target: Src family kinase 1 (SFK1) (Lytechinus pictus (endogenous in eggs and egg extract)); experiment: FRET or BRET; time-resolved FRET by two-photon time-domain FLIM; unfertilised L. pictus eggs (T0), fixed, labelled with anti-PLCγ-OG488 (donor) and anti-SFK1-Cy5 (acceptor); FRET efficiency from donor lifetime
[2] = target: Src family kinase 1 (SFK1) (Lytechinus pictus (endogenous in eggs and egg extract)); experiment: FRET or BRET; FRET by single-photon multi-frequency domain FLIM; cell-free assay, demembranated sperm nuclei decondensed in fertilised egg extract (S10) with ATP-GS, no GTP; fixed, labelled with anti-PLCγ-OG488 (donor) and anti-SFK1-Alexa 546 (acceptor)
[3] = target: Src family kinase 1 (SFK1) (Lytechinus pictus (endogenous in eggs and egg extract)); experiment: FRET or BRET; time-resolved FRET by two-photon time-domain FLIM; L. pictus eggs three minutes post-fertilisation (T+3), fixed, labelled with anti-PLCγ-OG488 (donor) and anti-SFK1-Cy5 (acceptor); ROI whole egg or male pronucleus

FRET efficiency % (egg ROI) [1]: 18.9%
FRET efficiency [2]: 5.7%
FRET efficiency % (MPN ROI) [3]: 4.8%
FRET efficiency % (egg ROI) [3]: 5.3%
Substance: phospholipase Cγ (PLCγ) (enzyme)

— publication PMC3404105
